The target of this assay is Spike. Kind of assay: SPR. (In general: Surface plasmon resonance follows binding to a sensor surface in real time, without labels.)

As usually defined, the Kd is the equilibrium constant for the complex coming apart. A lower Kd goes with a tighter complex.

Sequence of human angiotensin converting enzyme 2 (Q9BYF1 20-611): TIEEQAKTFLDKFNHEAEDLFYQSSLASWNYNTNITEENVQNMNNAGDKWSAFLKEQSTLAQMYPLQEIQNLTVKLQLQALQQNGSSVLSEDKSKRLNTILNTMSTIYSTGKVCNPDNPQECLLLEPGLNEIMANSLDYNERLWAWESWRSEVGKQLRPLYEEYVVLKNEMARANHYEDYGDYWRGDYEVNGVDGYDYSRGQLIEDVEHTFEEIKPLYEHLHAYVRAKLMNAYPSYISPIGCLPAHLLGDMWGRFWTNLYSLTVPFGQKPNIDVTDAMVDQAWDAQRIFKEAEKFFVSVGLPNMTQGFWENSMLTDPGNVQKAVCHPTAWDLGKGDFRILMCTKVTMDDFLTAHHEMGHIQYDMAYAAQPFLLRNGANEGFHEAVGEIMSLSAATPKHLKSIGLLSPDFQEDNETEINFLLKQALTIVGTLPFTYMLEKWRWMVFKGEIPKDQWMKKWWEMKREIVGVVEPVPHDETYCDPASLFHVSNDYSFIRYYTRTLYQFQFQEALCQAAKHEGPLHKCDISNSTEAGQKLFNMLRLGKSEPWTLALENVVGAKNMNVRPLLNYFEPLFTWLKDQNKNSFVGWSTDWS

For “human angiotensin converting enzyme 2 (from UniProt Q9BYF1-1 20-611) (receptor)”, the Kd was 370 nM.

Values taken from PMC12500691.
